Publication PMC12432892, “Therapeutic applications of interface-mimicking peptides for targeting the SARS-CoV-2 NSP12-NSP8 RdRp complex” (Molecular Therapy, 2025)

Target: SARS-CoV-2 NSP12 (SARS-CoV-2), P0DTD1

**Q.** Which IC50 of inhibition of SARS-CoV-2 RdRp activity in the cell-based minigenome (luciferase) assay; pair blocked: NSP12-NSP8 does the source give for NDALNNIINNARDGCVPLNIIPLTTA (modifications not checked) [N8-Pepα] here?
**A.** 8 µM
